{"source": "patent US20160186156A1", "about": "(YEDA RESEARCH AND DEVELOPMENT, published 2016)", "binders": {"B1": {"name": "adaptor scaffold CBM-A-B-T-DockII (other)", "chain": "MANTPVSGNLKVEFYNSNPSDTTNSINPQFKVTNTGSSAIDLSKLTLRYYYTVDGQKDQTFWCDHAAIIGSNGSYNGITSNVKGTFVKMSSSTNNADTYLEISFTGGTLEPGAHVQIQGRFAKNDWSNYTQSNDYSFKSASQFVEWDQVTAYLNGVLVWGKEPGGSVVPSTQPVTTPPATTKPPATTKPPATTIPPSGSDLQVDIGSTSGKAGSVVSVPITFTNVPKSGIYALSFRTNFDPQKVTVASIDAGSLIENASDFTTYYNNENGFASMTFEAPVDRARIIDSDGVFATINFKVSDSAKVGELYNITTNSAYTSFYYSGTDEIKNVVYNDGKIEVIASPTPTQSATPTVTPSATATPTQSATPTVTPSSPGNKMKIQIGDVKANQGDTVIVPITFNEVPVMGVNNCNFTLAYDKNIMEFISADAGDIVTLPMANYSYNMPSDGLVKFLYNDQAQGAMSIKEDGTFANVKFKIKQSAAFGKYSVGIKAIGSISALSNSKLIPIESIFKDGSITVTNTPTNTISVTPTNNSTPTNNSTPKPNPLSDGVVVEIGKVTGSVGTTVEIPVYFRGVPSKGIANCDFVFRYDPNVLEIIGIDPGDIIVDPNPTKSFDTAIYPDRKIIVFLFAEDSGTGAYAITKDGVFAKIRATVKSSAPGYITFDEVGGFADNDLVEQKVSFIDGGVNVGNATRSTNKPVIEGYKVSGYILPDFSFDATVAPLVKAGFKVEIVGTELYAVTDANGYFEITGVPANASGYTLKISRATYLDRVIANVVVTGDTSVSTSQAPIMMWVGDIVKDNSINLLDVAEVIRCFNATKGSANYVEELDINRNGAINMQDIMIVHKHFGATSSDYDAQLEHHHHHH"}}, "biological_target": "T1, primary hexavalent scaffold CohII-C-A-CBM-T-G-F", "T1 chain": "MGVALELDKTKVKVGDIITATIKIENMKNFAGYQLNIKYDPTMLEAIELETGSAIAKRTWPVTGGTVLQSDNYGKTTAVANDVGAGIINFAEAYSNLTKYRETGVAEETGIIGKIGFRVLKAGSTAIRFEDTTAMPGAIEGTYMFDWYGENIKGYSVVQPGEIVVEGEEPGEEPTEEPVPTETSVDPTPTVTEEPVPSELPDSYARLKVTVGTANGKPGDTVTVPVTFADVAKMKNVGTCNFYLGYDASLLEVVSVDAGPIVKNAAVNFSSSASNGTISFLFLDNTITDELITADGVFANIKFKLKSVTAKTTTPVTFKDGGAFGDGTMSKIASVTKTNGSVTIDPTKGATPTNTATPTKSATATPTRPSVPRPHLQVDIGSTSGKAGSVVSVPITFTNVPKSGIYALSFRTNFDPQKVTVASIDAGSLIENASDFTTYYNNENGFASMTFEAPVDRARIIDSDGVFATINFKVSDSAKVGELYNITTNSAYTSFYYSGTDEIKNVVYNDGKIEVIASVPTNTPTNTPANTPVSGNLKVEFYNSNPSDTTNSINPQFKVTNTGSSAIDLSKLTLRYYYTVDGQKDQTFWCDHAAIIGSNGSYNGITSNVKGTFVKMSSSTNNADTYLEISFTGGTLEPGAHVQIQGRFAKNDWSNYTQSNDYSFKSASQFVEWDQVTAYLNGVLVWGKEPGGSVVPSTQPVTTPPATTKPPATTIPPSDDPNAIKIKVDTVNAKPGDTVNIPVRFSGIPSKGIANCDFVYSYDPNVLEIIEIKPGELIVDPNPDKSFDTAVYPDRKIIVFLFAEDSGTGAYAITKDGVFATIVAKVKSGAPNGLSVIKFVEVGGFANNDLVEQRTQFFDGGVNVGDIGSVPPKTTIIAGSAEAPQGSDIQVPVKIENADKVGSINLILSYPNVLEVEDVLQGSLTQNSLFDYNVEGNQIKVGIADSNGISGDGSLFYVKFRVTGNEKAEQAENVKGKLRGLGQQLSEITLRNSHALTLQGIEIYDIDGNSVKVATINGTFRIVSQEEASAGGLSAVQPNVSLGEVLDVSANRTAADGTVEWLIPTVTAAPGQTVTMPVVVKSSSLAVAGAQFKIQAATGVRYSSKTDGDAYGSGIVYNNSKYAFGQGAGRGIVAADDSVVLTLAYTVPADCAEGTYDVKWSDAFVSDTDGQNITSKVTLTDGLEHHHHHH", "assay": "cell-based or functional assay", "data": [{"binder": "B1", "values": [{"measurement": "wheat straw degradation, reducing sugars released after 48 hours incubation at 50 C (FIG. 5, Column 7 against Columns 4 and 6)", "value": "~2", "unit": "fold"}]}]}
